How the values were obtained:
[1] = system: AR42J xenografts; experiment: Biodistribution in AR42J xenografts; format: in vivo, mice
[2] = Biodistribution in AR42J xenografts; format: in vivo, mice; conditions: mouse, all tissues other than tumor and kidneys, read-out: uptake in all locations other than tumor and kidneys
[3] = system: AR42J tumor; experiment: PET/CT imaging of AR42J tumor-bearing mice; format: in vivo
Description: PET/CT images (FIG. 6) were taken of AR42J tumor-bearing mice administered ^68Ga-DOTA-TOC (left) and ^68Ga-MMC(5-FU)-TOC (right).

[4] = system: SSTR2-expressing IMR-32 cells; experiment: Cellular uptake / receptor-mediated binding and octreotide blocking in IMR-32 cells; format: cell-based
Procedure: The cellular uptake of compound 7 was compared to another dual-labeled TOC agent, ^64Cu-DA(NIR)-TOC, which was synthesized by sequential N-terminal functionalization of resin-bound TOC with an azide-containing amino acid and DOTA-NHS, in IMR-32 neuroblastoma cells. Agents (30 nM, 1-2 μCi) were added to vials containing 4 million cells and incubated at 4° C. for 1 hr. […] After washing twice with PBS, the cells were collected and bound radioactivity was measured by a γ counter.

C[C@@H](O)[C@@H]1NC(=O)[C@H](CCCCN)NC(=O)[C@@H](Cc2c[nH]c3ccccc23)NC(=O)[C@H](Cc2ccc(O)cc2)NC(=O)[C@@H](NC(=O)[C@@H](Cc2ccccc2)NC(=O)CN2CCN(CC(=O)O)CCN(C(=O)Cn3cc(F)c(=O)[nH]c3=O)CCN(CC(=O)O)CC2)CSSC[C@@H](C(=O)N[C@H](CO)[C@@H](C)O)NC1=O [^68Ga-MMC(5-FU)-TOC, metal not drawn]
location of the majority of the injected dose [1]: either the tumor or kidneys
tissue uptake [2]: < 5 %ID/g
localization in PET/CT images [3]: primarily in the tumor, the kidneys, and the bladder
binding to IMR-32 cells [4]: good binding
reduction in binding on blocking with octreotide ([4]; 10-fold excess of octreotide): 81.2%
reduction in binding on blocking with octreotide ([4]; 200-fold excess of octreotide): 94.9%

— patent US10441607B1, “Multifunctional linker technology containing an N4 group” (priority 2016, dated 2019)
